Experimental data: paper PMC5706988

Molecular target: zonula occludens-1 (ZO-1) (UniProt Q07157)
Experiment: anti-ZO-1 co-IP, Cx43 blot
Details: reference: wild type; sites S373

connexin43 (Cx43) (from UniProt P08050) S373A
binding against the reference: stronger
